The record followed here is publication PMC9647470.

The series can be described thus: cycloheximide chase, endogenous CK2α, HEK293T. As to conditions: glycan lost; control: untreated.

B1: Casein kinase 2 alpha (CK2α): OSMI-4b (protein)
parent chain: MSGPVPSRARVYTDVNTHRPREYWDYESHVVEWGNQDDYQLVRKLGRGKYSEVFEAINITNNEKVVVKILKPVKKKKIKREIKILENLRGGPNIITLADIVKDPVSRTPALVFEHVNNTDFKQLYQTLTDYDIRFYMYEILKALDYCHSMGIMHRDVKPHNVMIDHEHRKLRLIDWGLAEFYHPGQEYNVRVASRYFKGPELLVDYQMYDYSLDMWSLGCMLASMIFRKEPFFHGHDNYDQLVRIAKVLGTEDLYDYIDKYNIELDPRFNDILGRHSRKRWERFVHSENQHLVSPEALDFLDKLLRYDHQSRLTAREAMEHPYFYTVVKDQARMGSSSMPGGSTPVSSANMMSGISSVPTPSPLGPLAGSPVIAAANPLGMPVPAAAGAQQ
As to B1, the degradation_or_half_life result is “no change”.
